According to patent publication US20230235073A1:

Experiments:
[1] = molecular target: human CD36 on cells overexpressing human CD36 (human) (UniProt P16671); assay: FACS on cells overexpressing human CD36, % of Binding
[2] = molecular target: human CD36 recombinant protein (Sino Biological, reference 10752-H08H) (human) (UniProt P16671); assay: ELISA, plate coated with human CD36, OD630, panel 'Coating: human CD36'
[3] = molecular target: mouse CD36 recombinant protein (Sino Biological, reference 50422-M08H) (mouse) (UniProt Q08857); assay: ELISA, plate coated with mouse CD36, OD630, panel 'Coating: mouse CD36'
[4] = molecular target: human CD36 recombinant protein (Sino Biological, reference 10752-H08H) (human) (UniProt P16671); assay: SPR Biacore T200, antibody captured on anti-mouse IgA, CD36 analyte, 2-state model
[5] = molecular target: human CD36 recombinant protein (Sino Biological, reference 10752-H08H) (human) (UniProt P16671); assay: SPR Biacore T200, antibody captured on anti-mouse IgA, CD36 analyte, bivalent model
[6] = molecular target: human CD36 recombinant protein (Sino Biological, reference 10752-H08H) (human) (UniProt P16671); assay: SPR Biacore T200, antibody captured on anti-mouse IgA, CD36 analyte 3.3-333 nM, 1-to-1 model

Sequence of human CD36 recombinant protein (Sino Biological, reference 10752-H08H) (human) (P16671 30-439 limits assumed): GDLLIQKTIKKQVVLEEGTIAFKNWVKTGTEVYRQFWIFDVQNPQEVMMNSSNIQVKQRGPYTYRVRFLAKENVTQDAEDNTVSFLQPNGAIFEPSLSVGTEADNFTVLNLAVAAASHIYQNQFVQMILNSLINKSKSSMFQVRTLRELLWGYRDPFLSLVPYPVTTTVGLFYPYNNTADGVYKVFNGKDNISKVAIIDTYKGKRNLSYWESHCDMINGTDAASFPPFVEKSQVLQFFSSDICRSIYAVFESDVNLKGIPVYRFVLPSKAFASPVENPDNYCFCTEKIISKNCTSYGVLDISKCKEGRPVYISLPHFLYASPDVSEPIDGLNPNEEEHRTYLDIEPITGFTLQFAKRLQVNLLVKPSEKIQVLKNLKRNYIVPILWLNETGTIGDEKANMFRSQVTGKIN
Sequence of human CD36 on cells overexpressing human CD36 (human) (P16671 2-472 limits assumed): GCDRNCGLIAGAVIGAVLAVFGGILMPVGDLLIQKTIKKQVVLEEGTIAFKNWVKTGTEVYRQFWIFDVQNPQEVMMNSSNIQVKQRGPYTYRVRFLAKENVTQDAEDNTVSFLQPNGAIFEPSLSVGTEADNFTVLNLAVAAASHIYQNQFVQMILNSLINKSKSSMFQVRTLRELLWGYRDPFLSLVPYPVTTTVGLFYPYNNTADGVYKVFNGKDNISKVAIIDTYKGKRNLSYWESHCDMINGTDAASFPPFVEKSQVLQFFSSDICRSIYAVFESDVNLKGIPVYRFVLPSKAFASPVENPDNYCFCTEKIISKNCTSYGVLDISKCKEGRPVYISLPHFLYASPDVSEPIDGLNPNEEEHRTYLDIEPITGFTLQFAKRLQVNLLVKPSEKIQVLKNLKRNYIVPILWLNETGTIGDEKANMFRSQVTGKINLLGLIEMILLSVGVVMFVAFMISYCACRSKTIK
Sequence of mouse CD36 recombinant protein (Sino Biological, reference 50422-M08H) (mouse) (Q08857 30-439 limits assumed, stated change not applied): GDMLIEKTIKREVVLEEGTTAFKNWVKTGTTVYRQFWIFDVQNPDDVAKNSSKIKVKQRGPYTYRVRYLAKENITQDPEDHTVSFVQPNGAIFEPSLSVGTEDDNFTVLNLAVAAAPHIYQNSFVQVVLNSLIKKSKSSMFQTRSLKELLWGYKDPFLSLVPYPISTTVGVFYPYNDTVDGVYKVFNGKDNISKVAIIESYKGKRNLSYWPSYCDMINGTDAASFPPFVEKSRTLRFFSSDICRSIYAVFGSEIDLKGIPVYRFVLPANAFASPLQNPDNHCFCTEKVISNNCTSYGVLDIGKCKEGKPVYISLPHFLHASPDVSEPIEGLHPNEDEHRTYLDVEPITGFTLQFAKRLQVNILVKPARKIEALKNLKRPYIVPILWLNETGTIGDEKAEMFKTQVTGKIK

EC50 (read off the curve) [1]: 0.03 nM
EC50 (read off the curve) [2]: 1 to 2 nM
EC50 (read off the curve) [3]: 1 nM
Kd [4]: 7.61 nM
ka1 [4]: 86900 M⁻¹ s⁻¹
ka2 [4]: 0.000572 s⁻¹
kd1 [4]: 0.0018 s⁻¹
kd2 [4]: 0.000332 s⁻¹
KD1 [5]: 76.5 nM
KD2 [5]: 956 nM
ka1 [5]: 27200 M⁻¹ s⁻¹
ka1 (second column so headed) [5]: 413 M⁻¹ s⁻¹
ka2 [5]: 5.5e-05 1/RUs
kd1 [5]: 0.00206 s⁻¹
kd2 [5]: 0.000399 s⁻¹
Kd [6]: 4.71 nM
koff [6]: 0.00196 s⁻¹
kon [6]: 418000 M⁻¹ s⁻¹
Substance: commercial neutralizing monoclonal anti-CD36 antibody JC63.1 (CAYMAN, CAY-10009893-500)
